In FireProtDB (doi:10.1002/cbic.201402128):
“And” between values parts separate entries of the source, which are not always exact repeats. Identical values can stand only once.

B1: Haloalkane dehalogenase, D4Z2G1 (parent)
chain: MSLGAKPFGEKKFIEIKGRRMAYIDEGTGDPILFQHGNPTSSYLWRNIMPHCAGLGRLIACDLIGMGDSDKLDPSGPERYAYAEHRDYLDALWEALDLGDRVVLVVHDWGSALGFDWARRHRERVQGIAYMEAIAMPIEWADFPEQDRDLFQAFRSQAGEELVLQDNVFVEQVLPGLILRPLSEAEMAAYREPFLAAGEARRPTLSWPRQIPIAGTPADVVAIARDYAGWLSESPIPKLFINAEPGALTTGRMRDFCRTWPNQTEITVAGAHFIQEDSPDEIGAAIAAFVRRLRPA

Variants of: B1
Conditions: Sphingobium indicum (strain DSM 16413 / CCM 7287 / MTCC 6362 / UT26 / NBRC 101211 / UT26S); pH 7.5; Thermal; fluorescence; Na-Hepes 50 mM; reversible: no; structure 1MJ5; whole UniProt chain shown

Variant | Tm | change of melting temperature, mutant - wild type (higher = more stable)
A95H | 50.5 °C | -0.5 °C
D30A | 51 °C | 0 °C
D30E | 51 °C | 0 °C
D30V | 49 °C | -2 °C
D30H | 51 °C | 0 °C
A133V | 51 °C | 0 °C
A197P | 52.5 °C | 1.5 °C
R254L | 49.5 °C | -1.5 °C
A271V | 62 °C | 11 °C
A271I | 60.5 °C | 9.5 °C
Q275P | 48 °C | -3 °C
S75C R79C | 45.5 °C and 44 °C | -5.5 °C and -5 °C
A269P | 50 °C | -1 °C
E244V | 50.5 °C | -0.5 °C
E244I | 50 °C | -1 °C
T264Q | 50 °C | -1 °C
T264L | 50.5 °C | -0.5 °C
A5C A185C | 56 °C and 55.5 °C | 5 °C and 6.5 °C
A129V | 50 °C | -1 °C
D147L | 65 °C | 14 °C
D147M | 66 °C | 15 °C
D147H | 59.5 °C | 8.5 °C
D147Y | 65 °C | 14 °C
A218P | 51.5 °C | 0.5 °C
A218E | 51 °C | 0 °C

Variant | Tm | change of melting temperature, mutant - wild type (higher = more stable)
T249M | 60.5 °C | 9.5 °C
T249L | 62.5 °C | 11.5 °C
T249V | 60 °C | 9 °C
A200P | 50.5 °C | -0.5 °C
G229Q | 54 °C | 3 °C
G229R | 51.5 °C | 0.5 °C
G229D | 51.5 °C | 0.5 °C
G229T | 51.5 °C | 0.5 °C
G229N | 51.5 °C | 0.5 °C
G229S | 52 °C | 1 °C
G229A | 51.5 °C | 0.5 °C
G229E | 51.5 °C | 0.5 °C
V105I | 50 °C | -1 °C
D226K | 50.5 °C | -0.5 °C
R225L | 51.5 °C | 0.5 °C
D100T | 51 °C | 0 °C
R20C D70C | 45.5 °C | -3.5 °C
V106L | 50.5 °C | -0.5 °C
C257A | 48.5 °C | -2.5 °C
V106C G114C | 50 °C | 1 °C
Q35V | 48.5 °C | -2.5 °C
Q35L | 48.5 °C | -2.5 °C
Q35I | 50.5 °C | -0.5 °C
L3S | 50.5 °C | -0.5 °C
S183D | 50 °C | -1 °C

Variant | Tm | change of melting temperature, mutant - wild type (higher = more stable)
D219Q | 50 °C | -1 °C
E123S | 51 °C | 0 °C
S41Q | 49 °C | -2 °C
C61P | 50.5 °C | -0.5 °C
R101H | 51 °C | 0 °C
V268C S278C | 48.5 °C and 46 °C | -2.5 °C and -3 °C
E78H | 51 °C | 0 °C
V103I | 51 °C | 0 °C
A5E | 51.5 °C | 0.5 °C
A5L | 50 °C | -1 °C
A81N | 51 °C | 0 °C
A81K | 52 °C | 1 °C
A81E | 48 °C | -3 °C
A81P | 48 °C | -3 °C
E139H | 61.5 °C | 10.5 °C
E139K | 58.5 °C | 7.5 °C
E139T | 60.5 °C | 9.5 °C
E139Q | 58.5 °C | 7.5 °C
L248F | 61.5 °C | 10.5 °C
L248W | 62 °C | 11 °C
E15T | 52 °C | 1 °C
K6E | 51 °C | 0 °C
A189Y | 51.5 °C | 0.5 °C
A189F | 51.5 °C | 0.5 °C
S183C E186C | 47 °C | -4 °C

Variant | Tm | change of melting temperature, mutant - wild type (higher = more stable)
I48C G283C | 49 °C | -2 °C
A196C A200C | 48.5 °C and 46 °C | -2.5 °C and -3 °C and -0.5 °C
D97N | 50 °C | -1 °C
D97R | 51 °C | 0 °C
D97K | 50.5 °C | -0.5 °C
R20L | 50 °C | -1 °C
A153K | 61 °C | 10 °C
A53K | 51 °C | 0 °C
A53L | 52 °C | 1 °C
E26Q | 51 °C | 0 °C
E26R | 50 °C | -1 °C
E26H | 50 °C | -1 °C
E26V | 51 °C | 0 °C
S42A | 49.5 °C | -1.5 °C
E192K | 54 °C | 3 °C
E192L | 51.5 °C | 0.5 °C
E192R | 53.5 °C | 2.5 °C
H51C G283C | 48.5 °C and 46 °C | -2.5 °C and -3 °C
A185P | 50.5 °C | -0.5 °C
D68H | 52 °C | 1 °C
D68L | 49.5 °C | -1.5 °C
D68N | 50.5 °C | -0.5 °C
Q172K | 61.5 °C | 10.5 °C
A83L | 51.5 °C | 0.5 °C
A83N | 50 °C | -1 °C

Variant | Tm | change of melting temperature, mutant - wild type (higher = more stable)
D166K | 53.5 °C | 2.5 °C
D166N | 53 °C | 2 °C
V220M | 61 °C | 10 °C
E233H | 51.5 °C | 0.5 °C
E233T | 51.5 °C | 0.5 °C
E233Q | 51.5 °C | 0.5 °C
E233S | 51.5 °C | 0.5 °C
S2C N47C | 48 °C | -3 °C
D255Q | 50.5 °C | -0.5 °C
D255K | 50.5 °C | -0.5 °C
D255A | 51.5 °C | 0.5 °C
D87K | 50 °C | -1 °C
D87L | 51.5 °C | 0.5 °C
D149Q | 62 °C | 11 °C
D149K | 67.5 °C | 16.5 °C
R86L | 49 °C | -2 °C
G176N | 51 °C | 0 °C
G176A | 51.5 °C | 0.5 °C
A247F | 67.5 °C | 16.5 °C
S42C A60C | 47.5 °C | -1.5 °C
Q152L | 61.5 °C | 10.5 °C
A296R | 50.5 °C | -0.5 °C
A296H | 50 °C | -1 °C
S75C E199C | 48.5 °C | -2.5 °C
